Assay results: publication PMC7039410 (Nature, 2019)

Columns and labels:
[1] = target: histone H2B, in the mononucleosome (X. laevis, UniProt P02281 2-126); assay: cross-linking
AUC = target: the molecule itself; assay: AUC

binding result [1]: binds
B1: Swi6 (natural protein)
chain: MKKGGVRSYRRSSTSKRSVIDDDSEPELPSMTKEAIASHKADSGSSDNEVESDHESKSSSKKLKENAKEEEGGEEEEEDEYVVEKVLKHRMARKGGGYEYLLKWEGYDDPSDNTWSSEADCSGCKQLIEAYWNEHGGRPEPSKRKRTARPKKPEAKEPSPKSRKTDEDKHDKDSNEKIEDVNEKTIKFADKSQEEFNENGPPSGQPNGHIESDNESKSPSQKESNESEDIQIAETPSNVTPKKKPSPEVPKLPDNRELTVKQVENYDSWEDLVSSIDTIERKDDGTLEIYLTWKNGAISHHPSTITNKKCPQKMLQFYESHLTFRENE
stoichiometry N (AUC): 2
